This is an account of results in paper PMC7730189.

Data set [1] has as its system RcuCCA (CCA-adding enzyme, tRNA nucleotidyltransferase) (Romanomermis culicivorax). The data set can be described thus: EMSA. The settings on record: 6 mM Mg2+; HEPES/KOH pH 7.6, 30 mM KCl, 6 mM MgCl2, 20 C, 10 min; 0.5 pmol tRNA, 0-4 uM enzyme; 5% native PAGE; n = 3. (In general: A gel shift assay detects complexes by their altered migration in electrophoresis.)
For data set [2], the system named is Chimera E (HsaCCA with RcuCCA beta-turn region) (Homo sapiens / Romanomermis culicivorax chimera). The data set can be described thus: EMSA. The settings on record: 6 mM Mg2+; HEPES/KOH pH 7.6, 30 mM KCl, 6 mM MgCl2, 20 C, 10 min; 0.5 pmol tRNA, 0-4 uM enzyme; 5% native PAGE; n = 3.

For the substance “GCGGAUUUAGCUCAGUUGGGAGAGCGCCAGACUGAAGAUCUGGAGGUCCUGUGUUCGAUCCACAGAAUUCGCA [tRNAPhe (lacking CCA)]”, the Kd (in general, the free concentration of one partner at which half of the binding sites on the other are occupied at equilibrium, for simple one-to-one binding) in data set [1] stood at 1.3 µM. mt-tRNAIle (armless, lacking CCA): the Kd in data set [1] came to 1.4 µM; in data set [2] it was 1.8 µM.
